Results from publication PMC9482650, “Quantitative fragmentomics allow affinity mapping of interactomes” (Nature Communications, 2022).

B1: SLC45A4, Q5BKX6 (peptide)
chain: QGPVETESVV

The binders below were run against MAGI2_3, Q86UL8 (assay: holdup assay). Details: plain residues with an end cap or a label only (N-terminal biotin on a linker: ado-ado).
Design: key: below the threshold = too weak to quantify, mostly under pKd 3.1 to 4

Sequence of MAGI2_3, Q86UL8 (Q86UL8 600-682): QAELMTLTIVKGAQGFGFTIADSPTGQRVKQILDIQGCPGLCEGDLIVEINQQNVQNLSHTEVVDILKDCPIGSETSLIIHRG

Binder | pKd
B1 | 3.65

Each binder was assayed against T1, HTRA3, P83110 (assay: holdup assay). Details: plain residues with an end cap or a label only (N-terminal biotin on a linker: ado-ado).
T1 sequence (P83110 354-453, limits assumed, looked up): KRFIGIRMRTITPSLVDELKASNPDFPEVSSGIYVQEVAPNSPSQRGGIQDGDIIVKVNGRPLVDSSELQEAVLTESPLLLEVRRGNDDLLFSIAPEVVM
Design: key: below the threshold = too weak to quantify, mostly under pKd 3.1 to 4

Binder | pKd
B1 | below the threshold

What follows are binders tested against GOPC, Q9HD26 (assay: holdup assay). Details: plain residues with an end cap or a label only (N-terminal biotin on a linker: ado-ado).
Design: key: below the threshold = too weak to quantify, mostly under pKd 3.1 to 4

Binder | pKd
B1 | 3.54

These binders were tested against GORASP1, Q9BQQ3 (assay: holdup assay). Details: plain residues with an end cap or a label only (N-terminal biotin on a linker: ado-ado).
Design: key: below the threshold = too weak to quantify, mostly under pKd 3.1 to 4

Sequence of GORASP1, Q9BQQ3 (Q9BQQ3 1-208): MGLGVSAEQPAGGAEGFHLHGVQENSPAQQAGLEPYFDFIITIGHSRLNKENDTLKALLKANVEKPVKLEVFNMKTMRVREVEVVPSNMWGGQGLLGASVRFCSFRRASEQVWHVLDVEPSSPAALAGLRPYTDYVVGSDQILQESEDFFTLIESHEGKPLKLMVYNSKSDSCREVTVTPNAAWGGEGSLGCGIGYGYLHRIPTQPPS

Binder | pKd
B1 | 3.65

Each binder was assayed against Inadl_4, Q8NI35 (assay: holdup assay). Details: plain residues with an end cap or a label only (N-terminal biotin on a linker: ado-ado).
Design: key: below the threshold = too weak to quantify, mostly under pKd 3.1 to 4

Sequence of Inadl_4, Q8NI35 (Q8NI35 547-651): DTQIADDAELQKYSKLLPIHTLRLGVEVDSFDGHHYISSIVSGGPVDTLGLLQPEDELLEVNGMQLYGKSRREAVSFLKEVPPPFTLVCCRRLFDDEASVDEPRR

Binder | pKd
B1 | 3.63

The binders below were run against FRMPD2_3, Q68DX3 (assay: holdup assay). Details: plain residues with an end cap or a label only (N-terminal biotin on a linker: ado-ado).
Design: key: below the threshold = too weak to quantify, mostly under pKd 3.1 to 4

Sequence of FRMPD2_3, Q68DX3 (Q68DX3 1073-1166): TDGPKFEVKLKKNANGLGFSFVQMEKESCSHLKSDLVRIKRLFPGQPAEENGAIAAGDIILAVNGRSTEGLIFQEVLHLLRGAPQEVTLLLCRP

Binder | pKd
B1 | 3.54

What follows are binders tested against Inadl_1, Q8NI35 (assay: holdup assay). Details: plain residues with an end cap or a label only (N-terminal biotin on a linker: ado-ado).
Design: key: below the threshold = too weak to quantify, mostly under pKd 3.1 to 4

Sequence of Inadl_1, Q8NI35 (Q8NI35 113-229): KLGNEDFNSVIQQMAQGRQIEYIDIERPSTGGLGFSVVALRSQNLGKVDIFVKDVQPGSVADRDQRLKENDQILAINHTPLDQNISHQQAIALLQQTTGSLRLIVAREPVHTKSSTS

Binder | pKd
B1 | below the threshold

What follows are binders tested against FRMPD2_1, Q68DX3 (assay: holdup assay). Details: plain residues with an end cap or a label only (N-terminal biotin on a linker: ado-ado).
Design: key: below the threshold = too weak to quantify, mostly under pKd 3.1 to 4

Sequence of FRMPD2_1, Q68DX3 (Q68DX3 770-861): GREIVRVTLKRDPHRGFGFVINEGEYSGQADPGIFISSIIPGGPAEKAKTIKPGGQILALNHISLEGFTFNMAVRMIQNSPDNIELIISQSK

Binder | pKd
B1 | below the threshold

The binders below were run against T2, FRMPD1, Q5SYB0 (assay: holdup assay). Details: plain residues with an end cap or a label only (N-terminal biotin on a linker: ado-ado).
T2 sequence (Q5SYB0 52-145, limits assumed, looked up): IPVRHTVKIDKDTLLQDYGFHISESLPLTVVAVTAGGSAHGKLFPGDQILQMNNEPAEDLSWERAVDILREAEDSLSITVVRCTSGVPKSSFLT
Design: key: below the threshold = too weak to quantify, mostly under pKd 3.1 to 4

Binder | pKd
B1 | below the threshold

Each binder was assayed against MAGI3_2, Q5TCQ9 (assay: holdup assay). Details: plain residues with an end cap or a label only (N-terminal biotin on a linker: ado-ado).
Design: key: below the threshold = too weak to quantify, mostly under pKd 3.1 to 4

Sequence of MAGI3_2, Q5TCQ9 (Q5TCQ9 398-503): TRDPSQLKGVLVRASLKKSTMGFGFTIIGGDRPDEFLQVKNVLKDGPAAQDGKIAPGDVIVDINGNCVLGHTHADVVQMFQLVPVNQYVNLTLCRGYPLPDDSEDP

Binder | pKd
B1 | 4.47

What follows are binders tested against GIPC2, Q8TF65 (assay: holdup assay). Details: plain residues with an end cap or a label only (N-terminal biotin on a linker: ado-ado).
Design: key: below the threshold = too weak to quantify, mostly under pKd 3.1 to 4

Sequence of GIPC2, Q8TF65 (Q8TF65 112-203): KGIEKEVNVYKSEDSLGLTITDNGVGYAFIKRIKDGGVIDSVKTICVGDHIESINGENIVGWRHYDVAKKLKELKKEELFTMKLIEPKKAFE

Binder | pKd
B1 | 4.37

These binders were tested against T3, NHERF3_3, Q5T2W1 (assay: holdup assay). Details: plain residues with an end cap or a label only (N-terminal biotin on a linker: ado-ado).
T3 sequence (Q5T2W1 238-333, limits assumed, looked up): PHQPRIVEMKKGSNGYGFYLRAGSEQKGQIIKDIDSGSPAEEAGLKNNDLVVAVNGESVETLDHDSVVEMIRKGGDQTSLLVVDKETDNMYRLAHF
Design: key: below the threshold = too weak to quantify, mostly under pKd 3.1 to 4

Binder | pKd
B1 | below the threshold

These binders were tested against T4, LIN7B, Q9HAP6 (assay: holdup assay). Details: plain residues with an end cap or a label only (N-terminal biotin on a linker: ado-ado).
T4 sequence (Q9HAP6 88-185, limits assumed, looked up): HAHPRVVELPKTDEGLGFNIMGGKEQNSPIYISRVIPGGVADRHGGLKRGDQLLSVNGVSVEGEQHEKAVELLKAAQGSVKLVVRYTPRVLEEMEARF
Design: key: below the threshold = too weak to quantify, mostly under pKd 3.1 to 4

Binder | pKd
B1 | below the threshold

What follows are binders tested against T5, RHPN1, Q8TCX5 (assay: holdup assay). Details: plain residues with an end cap or a label only (N-terminal biotin on a linker: ado-ado).
T5 sequence (Q8TCX5 508-602, limits assumed, looked up): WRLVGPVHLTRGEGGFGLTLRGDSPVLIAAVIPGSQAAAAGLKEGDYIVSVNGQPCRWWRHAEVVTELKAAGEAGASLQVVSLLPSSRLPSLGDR
Design: key: below the threshold = too weak to quantify, mostly under pKd 3.1 to 4

Binder | pKd
B1 | 4.47

Each binder was assayed against Inadl_8, Q8NI35 (assay: holdup assay). Details: plain residues with an end cap or a label only (N-terminal biotin on a linker: ado-ado).
Design: key: below the threshold = too weak to quantify, mostly under pKd 3.1 to 4

Sequence of Inadl_8, Q8NI35 (Q8NI35 1425-1530): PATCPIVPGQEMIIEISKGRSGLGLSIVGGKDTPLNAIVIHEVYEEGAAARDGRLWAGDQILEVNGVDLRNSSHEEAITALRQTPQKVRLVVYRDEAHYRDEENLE

Binder | pKd
B1 | 3.7

Each binder was assayed against LNX1_3, Q8TBB1 (assay: holdup assay). Details: plain residues with an end cap or a label only (N-terminal biotin on a linker: ado-ado).
Design: key: below the threshold = too weak to quantify, mostly under pKd 3.1 to 4

Sequence of LNX1_3, Q8TBB1 (Q8TBB1 500-596): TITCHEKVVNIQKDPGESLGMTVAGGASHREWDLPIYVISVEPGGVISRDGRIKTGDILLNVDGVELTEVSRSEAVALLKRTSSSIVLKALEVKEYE

Binder | pKd
B1 | below the threshold

These binders were tested against NHERF4_4, Q86UT5 (assay: holdup assay). Details: plain residues with an end cap or a label only (N-terminal biotin on a linker: ado-ado).
Design: key: below the threshold = too weak to quantify, mostly under pKd 3.1 to 4

Sequence of NHERF4_4, Q86UT5 (Q86UT5 464-550): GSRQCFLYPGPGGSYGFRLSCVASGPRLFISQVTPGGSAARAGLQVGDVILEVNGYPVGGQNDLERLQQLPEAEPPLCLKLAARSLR

Binder | pKd
B1 | below the threshold

Each binder was assayed against DLG4_2, P78352 (assay: holdup assay). Details: plain residues with an end cap or a label only (N-terminal biotin on a linker: ado-ado).
Design: key: below the threshold = too weak to quantify, mostly under pKd 3.1 to 4

Sequence of DLG4_2, P78352 (P78352 155-259): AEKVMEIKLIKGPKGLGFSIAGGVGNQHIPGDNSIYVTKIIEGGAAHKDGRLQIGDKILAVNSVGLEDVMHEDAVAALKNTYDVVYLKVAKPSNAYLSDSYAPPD

Binder | pKd
B1 | 4.59

These binders were tested against T6, SNTA1, Q13424 (assay: holdup assay). Details: plain residues with an end cap or a label only (N-terminal biotin on a linker: ado-ado).
T6 sequence (Q13424 82-180, limits assumed, looked up): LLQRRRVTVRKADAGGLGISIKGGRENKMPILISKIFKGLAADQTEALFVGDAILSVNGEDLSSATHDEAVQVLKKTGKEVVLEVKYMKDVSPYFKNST
Design: key: below the threshold = too weak to quantify, mostly under pKd 3.1 to 4

Binder | pKd
B1 | 4.93

Each binder was assayed against T7, DLG3_2, Q92796 (assay: holdup assay). Details: plain residues with an end cap or a label only (N-terminal biotin on a linker: ado-ado).
T7 sequence (Q92796 221-321, limits assumed, looked up): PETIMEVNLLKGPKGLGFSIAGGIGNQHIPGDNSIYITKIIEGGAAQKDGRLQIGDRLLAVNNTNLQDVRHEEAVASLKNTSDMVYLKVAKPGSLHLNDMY
Design: key: below the threshold = too weak to quantify, mostly under pKd 3.1 to 4

Binder | pKd
B1 | 4.47

Each binder was assayed against Inadl_10, Q8NI35 (assay: holdup assay). Details: plain residues with an end cap or a label only (N-terminal biotin on a linker: ado-ado).
Design: key: below the threshold = too weak to quantify, mostly under pKd 3.1 to 4

Sequence of Inadl_10, Q8NI35 (Q8NI35 1673-1763): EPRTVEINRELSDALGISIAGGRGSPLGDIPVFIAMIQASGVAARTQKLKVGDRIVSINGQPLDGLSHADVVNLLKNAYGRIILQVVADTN

Binder | pKd
B1 | below the threshold

What follows are binders tested against MAST2, Q6P0Q8 (assay: holdup assay). Details: plain residues with an end cap or a label only (N-terminal biotin on a linker: ado-ado).
Design: key: below the threshold = too weak to quantify, mostly under pKd 3.1 to 4

Sequence of MAST2, Q6P0Q8 (Q6P0Q8 1099-1202): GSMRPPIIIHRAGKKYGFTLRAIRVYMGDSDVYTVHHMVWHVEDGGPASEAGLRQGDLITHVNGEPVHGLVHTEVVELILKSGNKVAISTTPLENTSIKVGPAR

Binder | pKd
B1 | 4.73

These binders were tested against T8, ARHGEF11, O15085 (assay: holdup assay). Details: plain residues with an end cap or a label only (N-terminal biotin on a linker: ado-ado).
T8 sequence (O15085 42-136, limits assumed, looked up): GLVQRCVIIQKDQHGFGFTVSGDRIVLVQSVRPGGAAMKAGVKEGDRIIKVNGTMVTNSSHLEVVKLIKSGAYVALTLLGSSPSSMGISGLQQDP
Design: key: below the threshold = too weak to quantify, mostly under pKd 3.1 to 4

Binder | pKd
B1 | 3.99

Each binder was assayed against LNX1_2, Q8TBB1 (assay: holdup assay). Details: plain residues with an end cap or a label only (N-terminal biotin on a linker: ado-ado).
Design: key: below the threshold = too weak to quantify, mostly under pKd 3.1 to 4

Sequence of LNX1_2, Q8TBB1 (Q8TBB1 371-470): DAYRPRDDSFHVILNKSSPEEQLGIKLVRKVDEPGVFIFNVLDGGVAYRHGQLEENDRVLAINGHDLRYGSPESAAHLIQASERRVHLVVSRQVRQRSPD

Binder | pKd
B1 | below the threshold

These binders were tested against MAGI1_2, Q96QZ7 (assay: holdup assay). Details: plain residues with an end cap or a label only (N-terminal biotin on a linker: ado-ado).
Design: key: below the threshold = too weak to quantify, mostly under pKd 3.1 to 4

Sequence of MAGI1_2, Q96QZ7 (Q96QZ7 456-580): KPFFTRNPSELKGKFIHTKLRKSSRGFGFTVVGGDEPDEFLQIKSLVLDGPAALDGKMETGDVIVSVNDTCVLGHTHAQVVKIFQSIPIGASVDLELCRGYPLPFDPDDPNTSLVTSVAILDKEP

Binder | pKd
B1 | below the threshold

These binders were tested against T9, APBA1_1, Q02410 (assay: holdup assay). Details: plain residues with an end cap or a label only (N-terminal biotin on a linker: ado-ado).
T9 sequence (Q02410 651-752, limits assumed, looked up): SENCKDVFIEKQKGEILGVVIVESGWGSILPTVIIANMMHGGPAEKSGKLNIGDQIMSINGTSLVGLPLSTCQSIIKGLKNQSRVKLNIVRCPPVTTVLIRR
Design: key: below the threshold = too weak to quantify, mostly under pKd 3.1 to 4

Binder | pKd
B1 | below the threshold

These binders were tested against Inadl_6, Q8NI35 (assay: holdup assay). Details: plain residues with an end cap or a label only (N-terminal biotin on a linker: ado-ado).
Design: key: below the threshold = too weak to quantify, mostly under pKd 3.1 to 4

Sequence of Inadl_6, Q8NI35 (Q8NI35 1058-1167): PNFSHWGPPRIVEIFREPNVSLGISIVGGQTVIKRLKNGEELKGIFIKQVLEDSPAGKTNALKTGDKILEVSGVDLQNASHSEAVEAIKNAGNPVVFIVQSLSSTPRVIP

Binder | pKd
B1 | 3.57

Each binder was assayed against PARD3_3, Q8TEW0 (assay: holdup assay). Details: plain residues with an end cap or a label only (N-terminal biotin on a linker: ado-ado).
Design: key: below the threshold = too weak to quantify, mostly under pKd 3.1 to 4

Sequence of PARD3_3, Q8TEW0 (Q8TEW0 582-685): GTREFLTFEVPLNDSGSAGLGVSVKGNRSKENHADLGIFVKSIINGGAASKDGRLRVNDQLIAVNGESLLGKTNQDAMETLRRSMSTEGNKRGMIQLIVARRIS

Binder | pKd
B1 | 3.81
